According to patent US7169567:
“And” between values parts separate entries of the source, which are not always exact repeats. Equal entries are not always repeated. Values belong to the substance of their own block, whether it stands above or below them.

Assays:
Assay in all cases: cell-based or functional assay
[1] = target: intact rat PTH-1 receptor with HA epitope tag (rWT-HA) (rat) (UniProt P25961)
[2] = target: human PTH-1 receptor (human) (UniProt Q03431)
[3] = target: truncated rat PTH-1 receptor rΔNt (rat) (UniProt P25961)
Sequence of truncated rat PTH-1 receptor rΔNt (rat) (P25961 other isoform, or with tags, fused parts or gaps mutant): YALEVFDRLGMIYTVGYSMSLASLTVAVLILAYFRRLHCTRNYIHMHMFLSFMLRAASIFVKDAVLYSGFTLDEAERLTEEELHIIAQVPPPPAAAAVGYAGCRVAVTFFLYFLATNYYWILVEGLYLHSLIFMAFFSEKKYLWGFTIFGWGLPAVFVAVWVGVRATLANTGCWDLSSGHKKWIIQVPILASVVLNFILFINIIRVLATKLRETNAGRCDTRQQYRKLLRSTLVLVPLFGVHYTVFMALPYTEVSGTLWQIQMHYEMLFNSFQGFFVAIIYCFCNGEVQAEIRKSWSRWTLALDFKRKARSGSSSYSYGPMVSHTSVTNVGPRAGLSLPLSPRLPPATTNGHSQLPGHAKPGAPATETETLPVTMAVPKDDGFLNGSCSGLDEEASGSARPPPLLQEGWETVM

[4] = target: intact rat secretin receptor (rat) (UniProt P23811)
Sequence of intact rat secretin receptor (rat) (P23811 26-449): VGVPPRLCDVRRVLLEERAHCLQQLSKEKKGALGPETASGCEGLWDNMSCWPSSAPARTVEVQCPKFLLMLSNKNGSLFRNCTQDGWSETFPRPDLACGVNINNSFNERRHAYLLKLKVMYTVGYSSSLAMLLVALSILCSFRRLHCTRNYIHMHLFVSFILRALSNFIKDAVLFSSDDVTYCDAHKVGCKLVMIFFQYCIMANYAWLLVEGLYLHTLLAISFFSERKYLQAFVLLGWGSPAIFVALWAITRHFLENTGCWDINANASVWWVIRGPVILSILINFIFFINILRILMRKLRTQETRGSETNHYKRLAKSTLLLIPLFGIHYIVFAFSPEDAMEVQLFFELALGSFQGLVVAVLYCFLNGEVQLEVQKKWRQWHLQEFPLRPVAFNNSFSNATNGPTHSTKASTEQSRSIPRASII

Sequence of human PTH-1 receptor (human) (Q03431 27-593): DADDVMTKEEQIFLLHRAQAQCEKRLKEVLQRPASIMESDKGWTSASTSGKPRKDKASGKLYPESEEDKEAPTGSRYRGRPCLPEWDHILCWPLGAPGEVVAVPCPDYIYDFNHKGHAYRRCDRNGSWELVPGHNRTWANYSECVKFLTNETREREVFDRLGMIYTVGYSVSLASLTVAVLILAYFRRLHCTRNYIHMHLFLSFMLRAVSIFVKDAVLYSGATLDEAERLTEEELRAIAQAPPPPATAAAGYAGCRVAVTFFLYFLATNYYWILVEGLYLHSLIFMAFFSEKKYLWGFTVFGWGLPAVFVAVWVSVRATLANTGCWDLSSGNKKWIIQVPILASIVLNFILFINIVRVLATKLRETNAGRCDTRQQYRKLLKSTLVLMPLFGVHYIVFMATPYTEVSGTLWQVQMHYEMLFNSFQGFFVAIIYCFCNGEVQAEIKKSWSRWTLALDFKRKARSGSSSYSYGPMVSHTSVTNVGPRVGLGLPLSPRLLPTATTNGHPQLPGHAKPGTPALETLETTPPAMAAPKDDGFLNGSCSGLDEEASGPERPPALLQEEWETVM
Sequence of intact rat PTH-1 receptor with HA epitope tag (rWT-HA) (rat) (P25961 other isoform, or with tags, fused parts or gaps): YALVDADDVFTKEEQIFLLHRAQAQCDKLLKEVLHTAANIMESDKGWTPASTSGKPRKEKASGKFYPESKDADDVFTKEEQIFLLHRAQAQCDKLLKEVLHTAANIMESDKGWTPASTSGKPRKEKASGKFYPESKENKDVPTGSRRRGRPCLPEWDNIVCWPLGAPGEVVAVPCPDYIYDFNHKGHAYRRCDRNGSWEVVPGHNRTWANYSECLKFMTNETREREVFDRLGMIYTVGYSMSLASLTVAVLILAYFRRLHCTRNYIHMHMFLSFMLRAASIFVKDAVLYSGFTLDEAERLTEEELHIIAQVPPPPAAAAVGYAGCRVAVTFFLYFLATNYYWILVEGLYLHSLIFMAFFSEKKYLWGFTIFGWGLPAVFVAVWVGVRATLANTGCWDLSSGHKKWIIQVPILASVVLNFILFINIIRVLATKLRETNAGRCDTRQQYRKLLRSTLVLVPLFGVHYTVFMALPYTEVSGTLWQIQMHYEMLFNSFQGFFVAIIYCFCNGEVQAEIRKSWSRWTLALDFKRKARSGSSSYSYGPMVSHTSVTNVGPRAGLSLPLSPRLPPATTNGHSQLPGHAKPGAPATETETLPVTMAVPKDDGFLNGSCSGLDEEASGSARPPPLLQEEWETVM

reduction of the cAMP efficacy of the agonist PTH(1-14) [1]: < 70%
reduction of the cAMP efficacy of the agonist PTH(1-34) [1]: < 70%
Substance: [Leu11,D-Trp12]hPTHrP(7-34)NH2 (from UniProt P12272 43-70) (peptide)

EC50 of the cAMP response [2]: 2 nM
increase in intracellular cAMP levels relative to the basal cAMP level [2]: 50 fold
maximum cAMP response [2]: 254 pmole/well
decrease in cAMP potency compared with rWT-HA [3]: 100 fold
Substance: [Nle8,21,Tyr34]rPTH-(1-34)NH2 (from UniProt P04089 32-65) (peptide)

cAMP formation over the basal level [2]: 20 fold
dose required for cAMP activation relative to PTH(1-34) (orders of magnitude) [2]: 5 and 6
Substance: rat PTH(1-15) (from UniProt P04089 32-46) (peptide)

increase in cAMP levels [4]: 50 fold
Substance: secretin(1-27) (peptide)
